{
  "source": "patent US20040092712A1",
  "about": "(published 2004)",
  "key": {"F1024-1-3 antibody": {"molecular_target": "F1024-1-3 antibody", "assay": "competition ELISA: 4-fold diluted serum mixed with 1 µg/mL peroxidase-labeled F1024-1-3 on immobilised human sCD14(1-356)"}, "sCD14(1-307)S286C": {"molecular_target": "T1, sCD14(1-307)S286C (human, UniProt P08571 20-326)", "T1 construct": "CD14 mutant polypeptide expressed in COS-1 cells; also called CD14(s286C)", "T1 sequence": "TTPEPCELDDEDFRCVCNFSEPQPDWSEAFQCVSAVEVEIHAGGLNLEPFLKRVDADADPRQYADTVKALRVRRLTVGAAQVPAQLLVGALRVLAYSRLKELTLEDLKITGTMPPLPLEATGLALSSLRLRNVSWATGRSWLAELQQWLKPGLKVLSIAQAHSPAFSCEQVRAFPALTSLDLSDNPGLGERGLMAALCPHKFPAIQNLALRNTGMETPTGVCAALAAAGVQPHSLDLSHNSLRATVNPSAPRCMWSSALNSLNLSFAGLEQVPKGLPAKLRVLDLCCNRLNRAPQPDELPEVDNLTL", "assay": "BIACORE 3000, injected over immobilised sCD14(1-356), no LPS"}},
  "data": [
    {"binder": "rabbit soluble type CD14 (rabbit serum) (receptor, rabbit (New Zealand white), UniProt Q28680 18-342, looked up) STDTPEPCELDDDDIRCVCNFSDPQPDWSSALQCMPAVQVEMWGGGHSLEQFLRQADLYTDQRRYADVVKALRVRRLTVGAVQVPAPLLLGVLRVLGYSRLKELALEDIEVTGTAPPPPPLEATGPALSTLSLRNVSWPKGGAWLSELQQWLKPGLQVLNIAQAHTLAFSCEQVRTFSALTTLDLSENPGLGERGLVAALCPHKFPALQDLALRNAGMKTLQGVCAALAEAGVQPHHLDLSHNSLRADTQRCIWPSALNSLNLSFTGLQQVPKGLPAKLNVLDLSCNKLNRAPQPGELPKVVNLSLDGNPFLVPGASKLQEDLTN", "values": [
      {"measurement": "inhibition ratio of binding of F1024-1-3 antibody to human CD14", "setting": "F1024-1-3 antibody", "result": 52, "unit": "%"}
    ]},
    {"binder": "sCD14(1-356) (receptor, Expressed from pM1656 in COS-1 cells; GPI-anchoring sites Asn326 and Gly328 replaced by Gln and Val to give a soluble protein; In the BIACORE experiments it stood as a complex with LPS or FITC-LPS; also called full-length type human soluble CD14; recombinant soluble type CD14) TTPEPCELDDEDFRCVCNFSEPQPDWSEAFQCVSAVEVEIHAGGLNLEPFLKRVDADADPRQYADTVKALRVRRLTVGAAQVPAQLLVGALRVLAYSRLKELTLEDLKITGTMPPLPLEATGLALSSLRLRNVSWATGRSWLAELQQWLKPGLKVLSIAQAHSPAFSCEQVRAFPALTSLDLSDNPGLGERGLMAALCPHKFPAIQNLALRNTGMETPTGVCAALAAAGVQPHSLDLSHNSLRATVNPSAPRCMWSSALNSLNLSFAGLEQVPKGLPAKLRVLDLSCNRLNRAPQPDELPEVDNLTLDGNPFLVPGTALPHEGSMQSVVVPACARSTLSVGVSGTLVLLQGARGFA", "values": [
      {"measurement": "binding result", "setting": "sCD14(1-307)S286C", "result": "no binding (tested: 10 µg/mL)"}
    ]},
    {"binder": "rhesus monkey soluble type CD14 (serum) (receptor) TTPEPCELDDEDFRCVCNFSEPHPDWSEAFQCVSAVEVEIRVGGLSLEPFLTRVDPDADPRQYADTIKALRVRRLTVGAAQVPAQLLVGALRVLAYSRLQELTLEDLEITGTMPPLPLEATGLALSSLRLHNVSWATGRSWLAELQQWLKPGLKVLSIAQAHSPAFSCEQVRAFPALTSLDLSDNPGLGERGLIAALCPHKFPALQNLALRNTGMETPTGVCAALAAAGVQPHSLDLSHNSLRATANPSAPRCMWSSALNSLNLSFAGLEQVPKGLPAKLRVLDLSCNRLNRRPRPDELPQVDNLALDGNPFLVPGTALPQEGSMN", "values": [
      {"measurement": "inhibition ratio of binding of F1024-1-3 antibody to human CD14", "setting": "F1024-1-3 antibody", "result": 44, "unit": "%"}
    ]},
    {"binder": "crab-eating macaque soluble type CD14 (serum) (receptor) TTPEPCELDDEDFRCVCNFSEPHPDWSEAFQCVSAVEVEIRVGGLSLEPFLTRVDPDADPRQYADTIKALRVRRLTVGAAQVPAQLLVGALRVLAYSRLQELTLEDLEITGTMPPLPLEATGLALSSLRLHNVSWATGRSWLAELQQWLKPGLKVLSIAQAHSPAFSCEQVRAFPALTSLDLSDNPGLGERGLIAALCPHKFPALQNLALRNTGMETPTGVCAALAAAGVQPHSLDLSHNSLRATANPSAPRCMWSSALNSLNLSFAGLEQVPKGLPAKLRVLDLSCNRLNRRPRPDELPQVDNLALDGNPFLVPGTALPQEGSMN", "values": [
      {"measurement": "inhibition ratio of binding of F1024-1-3 antibody to human CD14", "setting": "F1024-1-3 antibody", "result": 57, "unit": "%"}
    ]},
    {"binder": "human serum-derived soluble type CD14 (receptor) TTPEPCELDDEDFRCVCNFSEPQPDWSEAFQCVSAVEVEIHAGGLNLEPFLKRVDADADPRQYADTVKALRVRRLTVGAAQVPAQLLVGALRVLAYSRLKELTLEDLKITGTMPPLPLEATGLALSSLRLRNVSWATGRSWLAELQQWLKPGLKVLSIAQAHSPAFSCEQVRAFPALTSLDLSDNPGLGERGLMAALCPHKFPAIQNLALRNTGMETPTGVCAALAAAGVQPHSLDLSHNSLRATVNPSAPRCMWSSALNSLNLSFAGLEQVPKGLPAKLRVLDLSCNRLNRAPQPDELPEVDNLTLDGNPFLVPGTALPHEGSMNSGVVPACARSTLSVGVSGTLVL", "values": [
      {"measurement": "inhibition ratio of binding of F1024-1-3 antibody to human CD14", "setting": "F1024-1-3 antibody", "result": 83, "unit": "%"}
    ]}
  ]
}
